Literature values as cited in PMC12043044.

Molecular target: Ubiquitin (UniProt P0CG48)

Sequence of Sla1 SH3-3 (P32790 350-418): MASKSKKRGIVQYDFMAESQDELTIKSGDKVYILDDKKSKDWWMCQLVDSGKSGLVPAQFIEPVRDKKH

Sla1 SH3-3 (from UniProt P32790)
Kd: 40 µM
